Test results from the nanobody polyreactivity screen of Harvey et al. (2022).

test: yeast display, Sf9 membrane polyspecificity reagent, FACS + sequencing; frameworks hold sequencing errors
Outline: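 Galactose-induced (36–48 hours) yeast carrying a synthetic nanobody display library were exposed to 10% biotinylated, detergent-solubilized Sf9 membrane reagent at 4 °C for 1 hour. FACS followed streptavidin microbead enrichment, using low and high (top ~1%) gates for expression (anti-HA) and reagent binding (streptavidin). Colony PCR, MiSeq 2 × 250 sequencing and CDR-length filtering followed. Labels for polyreactivity reflect the gate of origin.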

Sequence	polyreactivity (PSR sort gate)
QVQIVESGGGLVQAGGSLRLSCGASGSTLGWYGMGWYRQAPGKERELVATISESGGSTYYADSVKGRFTISRDNAKNTVYLQMNSLKPEDTAVYYCAADDRGLISRRGYFYLSYDYWGQGTQVTVSS	low polyreactivity
QVQLVESAGGLVQAGGSLRLSCAASGIIFRYYAMGWYRQAPGKERELVARITSRGGTYYADSVKGRFTISRDNAKNNVYLQMNSLKPEDTAVYYCAASYLLTHGYAYNYWGQGTQVTVSS	high polyreactivity
QVQLVESGGGLVQAGGSLRLSCAASGRIFVTNTMGWYRQAPGKERELVAAIDNSAGSTYYADSVKGRFTISRDNAKNTVYLQMNSLKPEDTAVYYCAADYPPYYGYGYWGQGTQVTVSS	low polyreactivity
QVQLVESGGGLVQAVGSLRLSCAASGSTFDIYAMGWYRQAPGKERELVAAITSGGSTYADSVKGRFTISRDNAKNTVYLQMNSLKPEDTAVYYCNADRWFGNYLHLSFLNDYWGQGNQVTVSS	low polyreactivity
QVQLVESGGGLVQAGGSLRLSCAASGGTFTYYTMGWYRQAPRKERELVAAISTGGRTYYADSVKGRFTISRDNAKNTVYLQMNSLKPEDTAVYYCDADTYTSRSRYSGSGGYDYWGQGTQVTVSS	low polyreactivity
QVQLVESGGGLVQAGGSLRLSCAASGRIFVGYAMGWYRQAPGKERELVAAISSRGGSTYYADSVKGRFTISRDNAKNTVYLQMNSLKPEDTAVYYCAKVRTYRYYDGGDYWGQGTQVTVSS	high polyreactivity
LVQLVQSGGGLVQAGGSLRLSCAASGLTFDYYAKGWYRQAPGKERELVAVISSGGSTYYADSVKGRITISRDNAKNTVYLQMNSLKTEDTAVYYCAAEIYRYRLRDEYDYWGQGTQVTVSS	low polyreactivity
QVQLVESGGGLVHAGGSLRLSCAASGFTFGGYAKGWYIQAPGKERELVAAISQSGGRTYYADSVKGRFTISRDHAKNTFYLQMNSLKPEDTAVYYCAKPSTTYYQRGDYWGQGTQVTVSS	high polyreactivity
QVQLVESGGGLVQAGGSLRLSCGASGFTFQNYAMGWYRQARGKERELVAAIDSRGGRTYYADSVKGRFTISRDNAKNTVYLQMNSLKPEDTSVYYCAVAENKRCGAVGYYYWGQGTQVTVSS	low polyreactivity
QVQLVESGGGLVQAGGSLRLSCAASGFIFGTYAMGWYRPAPGKERELVAAITSGGSTYYADSVKGRFTISRDNAKNTVYLQMNSLKPEDTAVYYCAKYHWRLSFSRYPYDYWGQGTQVTVSS	high polyreactivity
QVQLVESGGGLVQAGGSLRLSCAASGSTFFGYAMGRYRQAPGKERELVAAISYRGGSTYYADSVKGRFTISRDNAKNTVYLQMNSLKPEDTAVYYCAATHGPTGSYYWGQGTQVTVSS	high polyreactivity
QVQLVESGGGLVQAGGSLRLSCAASGSTFAPNAMGWYRQAPGKERELVAAISRGGSTYYADSVKGRFTISRDNAKNTVYLQMNSLKPEDTAVYYCAVYKFHYGYVWYPYDYWGQGTQVTVSS	high polyreactivity
QVQLVESGGGLVQAGGSLRLSCAASGSTFGPYAMGWYRQAPGKERELVATISGSGSSTYYADSVKGRFTISRDNAKNTVYLQMNSLKPEDTAVYYCATDLYFDLRYDYWGQGTQVTVSS	low polyreactivity
QVHLVESGGGIVQAGGSLRLSCAASGSIFNYYAMGWYRQAPGKETELVAAITWSGGRTYYADSVKGRFTISRDNAKNTVDLQMNSEKPEDTAVYYFATATVRFRVILFSPRMDDWGQGSQVTVSS	low polyreactivity
QVQLVESGGGLVQAGGSLRLSCAASGRTFGPYTMGGYIQAPGKEREFVAAIRSRGDTTYYADSVKGRFTISRDNAKNTVYLQMNSLKPEDTAVYYCAARSYFLVAGSRYDYWGQGTQVTVSS	high polyreactivity
QVQLVESGGGLVQAGGSLRLSGAASGSTFIINAMGWSSQAPGKELELVAAISGRGTRTYYADSVKGRFTISRDNAKNTVYLQMNSLNPEDTAVYSCAALDTAGPYNTLDIYDHWGQGTQVTVSS	high polyreactivity
QVQLVESGGGLVQAGGSLRLSCAASGRTFGGYAMGWYRQAPGTERELVAAIRSRGGRTYYADSVKGRFTISRDNAKKSVYLQMNSLKPEDTAVYYCATYGNKWGEDYWGQGTQVTVSS	high polyreactivity
QVQLVESGGGLVQAGGSLRLSCAASGRLFTGNAMGWYRQAPGKERELVADINRTGGSPYYADSVKGRFTISRDNAKNTVYVQLNSLKPVDTAVYDCAAYVPWGWRYGYNYWGQGTQVTVSS	high polyreactivity
QVQLVESGGGLVQAGGSLRLSCAASGSTFNWYAMGWYRQAPGKERELVASIRISGGSTYYADSVKGRFTISRDNAKNTVYLQMNSLKPEDTAVYYCNAKLFIRWFTYDYLGQGTQVTVSS	low polyreactivity
QVQLVESGGGLVQAGGSLRLSCAASGIIFTTNMGWYRQAPGKERELVATIRVNGGRTYYADSVKGRFTISRDNAQNTVYLQMNSLKPEDTAVYYCAARYSAGAQRYGYWGQGTQVTVSS	high polyreactivity
QVQLVESGGGLVQAGGSLRLSCAASGFIFRHYAMGWYRPAPGKERELVAAITSGGTTYYADSVKGRFTISRDNAKNTVYLQMNSLKPEDTAVYYCNTVYYRPGQDVDYWGQGTQVTVSS	high polyreactivity
QVQLVESGGGLVQAGGSLRLSCAASGSTFGIYAMRWYRQAPGKERELVAAISSRGSTYYADSVKGRFTISRDNAKNTVYLQMNSLKPEDTAVYYCAAKVWARVDGRQFRMVYWGQGTQVTVSS	high polyreactivity

Sequence	polyreactivity (PSR sort gate)
QVQLVESGGGLVQAGGSLRLSCAASGRTFGQYVMGWYREAPGKERELVAAIRSGGSTYYADSVKGRFTISRDNAKNTVYLQMNSLKPEDTAVYYCANETYYGTDNFGQVGGEMDYWGQGTQVTVSS	low polyreactivity
QVQLVESGGVFDQARGSLRLSCAASGSIFAIYAMGWYRQAPGKERELVAAISRSGGRTYYADSVKGRFTISRDNAKNTVYLQMNSLKPEDTAVYYCAAQGVSSGFRYRGGYWGQGTQVTVSS	high polyreactivity
QVQLVESGGGLVQAGGSLRLSCAASGSIFYVYAMGWYRQAPGKERELVATISSSAGSTYYADSVKGRFTISRDNAKNTVYLQMNSLKPEDTAVYYCAVRQIYQTSDHRLQYDYWGQGTQVTVSS	low polyreactivity
QVQLVESGGGLVQAGGSLRLSCAASGFISGVNTMGWYSQAPGKERELVAAISSGGRTHYADSVKGRFTISRDNAKNTVYLQMNSLKPEDTAVYYCATRVRSTTRYYYWGLGTQVTVSS	high polyreactivity
QVQLVESGGGLVQAGGSLRLSCAASGSIFGNYAMGWYRQAPGKEREFVARISRGARTYYADSVKGRFTISRDNAKNTVYLQMNSLKPEDTAVYYCNARDYSVSYSVRFDYWGQGTQVTVSS	high polyreactivity
QVQLQESGSGLVQAGGSLRLSCAASGNISHYNDMGWYRQAPGKEREPVATINSGSITYYADSVKGRFTISRDNAKYTVYLQMNSLKPEDTAVYYCAVKQHGYFYLDYWGQGTQVTVSS	high polyreactivity
QVQLVESGGGLVQAGGSLRLSCAASGRIFEVYAMGWYRQAPGKERELVAAITSSGGSRTYYADSVKGRFTISRDNAKNTVYLQMNSLKPEDTAVYYCAASTHRGRYKRYDYWGQGTQVTVSS	high polyreactivity
QVQLVESGGGLVQAGGSLRLSCAASGRIFWRYAMGWYRQAPGKERQLVAGITYSGGRTYYADSVKGRFTISRDNAKNTVYLQMNSLKPEDTAVYYCAARGYFDALFDYWGQGTQVTVSS	low polyreactivity
QVQLVESGGGLVQAGGSLRLSCAASGRTIRWYAMGWYRQAPGKERELVAAITWIGGSTYYADSVKGRFTISRDNAKNTVYLQMNSLQPEDTAVYYCATDKDDVSDLGKDYAYFEYDYWGQGTQVTVSS	low polyreactivity
QVQLVESGGGLVQAGGSLRLSCAASGRIFYVYAMGWYRQAPGKERELVAGIRSGGSTNYADSVKGRFTISRDNAKNTVYLLMNSLKPEDTAVYYCAVQSYGALSPQLVYRRYDYWGQGTQVTVSS	high polyreactivity
QVQLVESGGGLVQAGGSLRLSCAASGGIFAYNVMGWYRQAPGKERELVAAISSAGSTYYADSVKGRFTISRDNAKNTVYLQMNSLKPEDTAVYYCAVRIGLKYDYWGQGTQVTVSS	low polyreactivity
QVQLVESGGGLVQAGGSLRLSCAASGRTFYQYAMGWYRQARGKERELVAAISRRGGSTYYADSVKGRFTISRDNAKNTVYLQMNSLKPEDTAVYYCAARVRGKYDYWGQGTQVTVSS	high polyreactivity
QVQLVESGGCLVKAGCSLRLSCAASGRIFFVNAMGWYRPAPGKECELVAAISRGGSTNYADSVKGRFTISRDNAMNTVYLQMNILKPEDTEVYYCAAGYVRYPGVIDEYWGPGTQVTVSS	low polyreactivity
QVQLVESGGGLVQAGGSLRLSCAASGLTFYYYAMGWYRQAPGIEREFVAAINWDGGSTYYADSVKGRFTISRDKAKNTVYLQMNSLKPEDTAVYYCATGDTDYDYWGQGTQVTVSS	low polyreactivity
RVQLQESGGGLVQAGGTLRLSCAASGTIFIRGDMGWYRQAPGKEREFVATIDTGSNTYYADSEKGRFTISRDNAKKAVYLQMNCLKPGDTAVYYCVVDYQLSGRLWDWGQGTQVTLSS	low polyreactivity
QVQLVESGGGLVQAGGSLRLSCAASGSIFAPYAMGWTRQAPGKERELVASISVRSGSTHYADSVKGRFTISRDNAKNTVYLQMNCLNPEDTAVYYCNARTYDYSWVWESRWWYYYWGQGTQVTVSS	high polyreactivity
QVKLVESGGGLVQAGGSLRLSCADSGLIFYKYAMGWYRKAPGKERELVAAITSGGSTNYADSVKGRFTISRDNAKNTVYLQMNSLKPEDTAVYYCNADYNHYLVVRWWYPPVDYWGQGTQVTVSS	low polyreactivity
QDQLVESGGGLVQAGGSLRLSCAASGLTFAPYAMGWYREAPGKERELVAAISNGGSTYYADSVKGRFTISRDNAKNTVYLQMISLKPEDTAVYYCADRAFYFWRGYDYWGQGTQVTVSS	high polyreactivity
QVQLVESGGGLVQAGGSLRLSCAASGSTFFSYDMGWYRQAPGKERELVATISTSVGRTYYADSVKGRFTISRDNAKNTVYLQMNSLKPEDTAVYYCATVGYLYTPVVVTWWDWGDYWGQGTQVTVSS	low polyreactivity
QVQLVESAGALVQEGGSLRLICAASGFTFLKNAMGWYRQAPGKERELVDGISRSGGSTYYADSVKRRFTISRDKAKNPDYLQMNSQKPEDPAVYYCAAGTVQSYTWLPTRGDYWGQGSQVTVSS	high polyreactivity
QVQLVESGGGLVQAGGSLRLSCAASGSIFWSYAMGWYRQAPGKERELVAVINWSGGSTYYADSVKGRFTISRDNAKNTVYLQMNSLKPEDTAVYYCNKDLGPTKRPFTFDYWGQGTQVTVSS	low polyreactivity
